Measurements published in the supplement of paper PMC9170038.

System: MS2 coat protein
Test: apparent KD of MS2 coat protein; designed switch direction (-1 OFF switch, 1 ON switch): -1; higher = weaker reporter binding
Outline: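 SNAP-549-labelled MS2 coat protein was titrated, doubling from 0.7 or 1.5 nM to 3 µM, over designed RNA switches transcribed on Illumina chips by stalled E. coli RNA polymerase. Runs were done without input, with 200 uM small-molecule ligand, or with an oligonucleotide input. Apparent KD is the per-design median over clusters of curve-fitted normalised fluorescence.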

[1] = Eterna round: R95, input ligand: microRNA oligo, concentration not stated
[2] = Eterna round: R95, input ligand: FMN 200 uM
[3] = Eterna round: R95, input ligand: none

Sequence	apparent KD of MS2 coat protein (input ligand: FMN 200 uM) [nM]	apparent KD of MS2 coat protein (input ligand: none) [nM]	apparent KD of MS2 coat protein [1] [nM]	apparent KD of MS2 coat protein [2] [nM]	apparent KD of MS2 coat protein [3] [nM]	apparent KD of MS2 coat protein (input ligand: microRNA oligo, concentration not stated) [nM]
UUUCCACAUGAGGAUCACCCAUGUCAGGAUAUCUCCACAUCUUCGGAUGUGGCGUGUUAGAGAAGGGACAUGUA [EX1 A.22] (Eterna round: R97, puzzle: Exclusion 1)	104	33.7				
UUUCUCUGUGUGAGGAUAUACUUGUUUGGGUUUUUGUAGAAGGCACAUGAGGAUCACCCAUGUAUUUUGUCGUG [JR_BME4_Sub019] (puzzle: Brourd's mod of Exclusion 4)			31.5			
UUUGCAAGCUUUUGAUCCCACAUGAGGAUCACCCAUGUUGCUGCCGUGAGGUAGCAUUUAACAAAUGCUCGUCUUAU [JL TOV1 3.53] (Eterna round: R97, puzzle: Sensor, turn-off variant 1)	555	762				
UUUGUACAUGAGGAUCACCCAUGUCAGGAUAUGUCAUCGCCGUUUCCCAGCCGGCGUCACAGAAGGGACAUGCA [EX1 C.5] (Eterna round: R97, puzzle: Exclusion 1)	56.6	26.2				
UUUUAACAUGAGGAUCACCCAUGUAAGGAUAUGCUAUUUUUUUUUUUUUUUUUUUUUUGCAGAAGGUACAUUUU [My solution] (puzzle: Exclusion 1)			21.3	33.8	21.6	
UUUUAACAUGAGGAUCACCCAUGUGAGGAUAUCGAAAUUUAUAUUAAUAUUUAUAAAUCGAGAAGGCACAUUUU [JMF 52] (puzzle: Exclusion 1)			139			
UUUUAACAUGAGGAUCACCCAUGUGAGGAUAUCGAAAUUUAUAUUAAUAUUUAUAUUUCGAGAAGGCACAUUUU [JMF 57] (puzzle: Exclusion 1)			153			
UUUUAACAUGAGGAUCACCCAUGUGAGGAUAUCGAAAUUUUUAUUAAUAUUAAUAAAACGAGAAGGCACAUUUU [JMF 12] (puzzle: Exclusion 1)			58.3			
UUUUAACAUGAGGAUCACCCAUGUGAGGAUAUCGUAUUUUAUAUUAAUAUUAAUAAAACGAGAAGGCACAUUUU [JMF 9] (puzzle: Exclusion 1)			25.4	28.4	29.5	
UUUUAACAUGAGGAUCACCCAUGUGAGGAUAUGAUUUUUUUUUUUUUUUUUUUUUUUUUCAGAAGGCACAUUUU [My solution] (puzzle: Exclusion 1)			64.3	18	42.4	
UUUUACUCAGGAUAUAUGAUGUGAAACAUGAGGAUCACCCAUGUAAUAUUAUGGAUGUAAAUAGAAGGGAGAUUUA [Mat - Exclusion 5 - JL mod - D16] (puzzle: Exclusion 5)			45.5	46.4	59.5	
UUUUAGAGAGGAUAUAUAUAGUGAAACAUGAGGAUCACCCAUGUAAUUAUAUGGAUGUAAAUAGAAGGCUCAUUUA [JL-ex5-3.02] (puzzle: Exclusion 5)			31.1	35.7	30.7	
UUUUAGAGAGGAUAUAUUUAGUGAAACAUGAGGAUCACCCAUGUAAUUAAAUGGAUGUAAAUAGAAGGCUCAUUUA [Mat - Exclusion 5 - JL mod - D6] (puzzle: Exclusion 5)			23.7	22.9	26.4	
UUUUAGGUAGGAUAUACAUUUUUUUUAUUAUCCUCAUUAUUACAUGAGGAUCACCCAUGUAGAAGGACCAUUUU [My Design] (puzzle: Exclusion 2)			181			
UUUUUAUAUGAAGGAUAUACUUAACAUGAGGAUCACCCAUGUGGUGUUGUGAGUGAGUGAGUUUAGUAGAAGGUCAACGAUUUU [JMF's solution 58] (Eterna round: R96, puzzle: Exclusion NG 2)	810	421				322
